The record followed here is the supplement of paper PMC12042874.

± gives the uncertainty stated by the source.

A short description of this data set: amyloid nucleation score (Sup35N fusion, yeast selection) (log enrichment); library NNK2; higher = more nucleation; inactive = no reads after selection. The method, boiled down: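 Output and input plasmid inserts were sequenced by Illumina after psi-negative yeast carrying Sup35N fused to peptides of 20 random codons had been induced 24 hours with 100 μM copper sulfate and grown 7 days at 30°C on medium lacking adenine and uracil. The nucleation score is the DiMSum log enrichment of output over input reads, centred on the mode score of non-aggregating sequences. Sequences with under 100 input reads were excluded.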
In turn, VMFTGHCVTRNDRDRLVLTY displayed an amyloid nucleation score of -0.522 ± 0.76.

With VMRAMFSRAPFGPRNSSPLN, the amyloid nucleation score is 0.417 ± 0.37.

The substance VMRRVVKKQSWYLIKGLSM came in with an amyloid nucleation score of 0.802 ± 0.32.

VMSFHWCVVSSVPWDCQACH: the amyloid nucleation score was 3.93 ± 0.1.

As to VMVDMGGWHEAWLVTSIRWS, the amyloid nucleation score worked out at 0.889 ± 0.3.

For the substance VMYRCSRSALNLHVRRNWRW, the amyloid nucleation score was found to be 0.455 ± 0.65.

VNFNMALDNYFSNFEYRVRN yielded an amyloid nucleation score of -1.17 ± 0.35.

The substance VNFNQSRCVDYVGILVIGG yielded an amyloid nucleation score of -0.248 ± 0.28.

In turn, VNGWDWQRYLRILKCFVVY showed an amyloid nucleation score of 0.615 ± 0.36.

In turn, VNIERGFLRLKRLD displayed an amyloid nucleation score of -0.316 ± 1.1.

In the case of VNKSSERNESIGRFRTCYRR, the amyloid nucleation score worked out at 0.345 ± 0.8.

As to VNNGLPDCFSLRYAVHPMRL, the amyloid nucleation score was -0.526 ± 0.64.

Substance VNNGSMFSRGDWCVVLYPTW came in with an amyloid nucleation score of 3.45 ± 0.077.

Consider VNQFNVIIKD, for which the amyloid nucleation score worked out at 3.33 ± 0.1.

With VNSEPDTLEGNENWYMGTRC, the amyloid nucleation score is -0.125 ± 0.49.

VNTSFATFSSVSLEGLLSMV returned an amyloid nucleation score of -0.595 ± 0.3.

Turning to VNVEYSSMHKLCAW, the amyloid nucleation score worked out at 0.201 ± 0.46.

For the substance VNVGKCNRTVGIWLLWKVNA, the amyloid nucleation score came out at 0.584 ± 0.44.

The substance VPLGECIPNFLSTYGGYVVS had an amyloid nucleation score of -0.287 ± 0.33.

VPNYLCGDTLPEYYETPPDH returned an amyloid nucleation score of 0.224 ± 0.4.

In the case of VPRKILFCLLACCRMRQACS, the amyloid nucleation score turned out to be 0.67 ± 0.33.

As for VPSQRNWFC, the amyloid nucleation score was 0.007 ± 0.63.

For VPSSEYFIVFVCRPLLIVSL, the amyloid nucleation score result was “inactive”.

Regarding VPSTIWMTR, the amyloid nucleation score came out at 0.585 ± 0.38.

VPWSLGLCSIFRSFK gave an amyloid nucleation score of 2.38 ± 0.16.

The substance VQNLMYIVISPFDRYGRCGR registered an amyloid nucleation score of 9.735 ± 0.048.

VQPYSILNFRMELKANRLEL gave an amyloid nucleation score of 4.4 ± 0.052.

Substance VQVVLNSETSSCASLRCMTY yielded an amyloid nucleation score of 8.047 ± 0.029.

VRANLGAGFRFKSETGDAS displayed an amyloid nucleation score of 0.861 ± 0.14.

VRFKYIYHTGLDDVAVNQY: the amyloid nucleation score was -0.487 ± 0.55.

Regarding VRFNGLVR, the amyloid nucleation score result was “inactive”.

For VRITVSSSLALWLVWLSHYR, the amyloid nucleation score was -0.167 ± 0.27.

As for VRKGHPYALELLSCYVGCQP, the amyloid nucleation score is 1.18 ± 0.25.

As for VRKSHS, the amyloid nucleation score amounted to 0.308 ± 0.42.

As for VRLLMKLYNVPWVFH, the amyloid nucleation score result was “inactive”.

VRLRGYSR gave an amyloid nucleation score of -0.439 ± 0.39.

VRMSLTLSFQVLAYWEGFIK: the amyloid nucleation score is -0.64 ± 0.49.

As to VRRYYDSKSSIAYMLSIRVD, the amyloid nucleation score is -0.447 ± 0.27.

For VRSGTLFARTKWEESSCHLF, the amyloid nucleation score came to 0.641 ± 0.4.

In turn, VRSVGGTLASPWRAYGC had an amyloid nucleation score of 0.527 ± 0.57.

The substance VRSYNVKYCSRRNLICGDG showed an amyloid nucleation score of -0.019 ± 0.41.

The substance VRTPEYSLHLVAS showed an amyloid nucleation score of -0.02 ± 0.61.

In turn, VRWFCSVISF had an amyloid nucleation score of 2.39 ± 0.14.

Consider VRWMITHNFRVF, for which the amyloid nucleation score entry was “inactive”.

As to VRWTRFQALLYLK, the amyloid nucleation score entry was “inactive”.

Turning to VSASEEVPAFCCVTVAQ, the amyloid nucleation score is -0.195 ± 0.61.

In turn, VSEMPLLYR gave an amyloid nucleation score of 0.769 ± 0.53.

For the substance VSEWFGTKGWRLDYLCLYWL, the amyloid nucleation score is -1.03 ± 0.64.

The substance VSFATRRSSNNILTGW had an amyloid nucleation score of -0.557 ± 1.1.

VSFKTSGKLCTAWFVWGLF had an amyloid nucleation score of -0.108 ± 0.34.

In turn, VSFSSNHGFAMVRLSWSQKR had an amyloid nucleation score of 5.49 ± 0.058.

For the substance VSGCV, the amyloid nucleation score is -0.865 ± 0.54.

In the case of VSGDRLPSLFTCVRLLI, the amyloid nucleation score is 0.492 ± 0.41.

Consider VSIYLG, for which the amyloid nucleation score was determined as 2.72 ± 0.15.

VSKSFWGMGWSLRYSGFSRV returned an amyloid nucleation score of -0.262 ± 0.41.

On to VSLKFLQGGAKDLRWSCGGE, for which the amyloid nucleation score worked out at 1.78 ± 0.23.

In the case of VSLRYRKRQWCYRVKWSITD, the amyloid nucleation score is -1.36 ± 0.48.

Take VSMAIFGSSNILYSIRSLLE: the amyloid nucleation score worked out at 4.37 ± 0.082.

VSMEKVRSDGMDRFASGFAA: the amyloid nucleation score worked out at 0.361 ± 0.29.

In the case of VSMRMVHGDYKWGRGCLIWI, the amyloid nucleation score was -0.196 ± 0.45.

Substance VSNCLQGLYFCWSTGSRSRI registered an amyloid nucleation score of 6.796 ± 0.03.

Turning to VSNPSGVREPATTGGQSLAI, the amyloid nucleation score came out at 0.966 ± 0.47.

Turning to VSRAFNFSRCRRKISPALQC, the amyloid nucleation score was found to be 0.135 ± 0.33.

Turning to VSRDIIKKVSASNRSMVSDS, the amyloid nucleation score came out at 0.163 ± 0.56.

Substance VSRKV came in with an amyloid nucleation score of 0.476 ± 0.23.

In turn, VSRSSRWYNRIGMVRSVWNK showed an amyloid nucleation score of -0.139 ± 0.21.

In turn, VSSLMMVGNRFLIISWTESV displayed an amyloid nucleation score of 2.55 ± 0.092.

The substance VSTKVGSSYEVVGYKVSHFG displayed an amyloid nucleation score of -0.291 ± 0.76.

The substance VSVGWRVAVWWILKWEHLSR returned an amyloid nucleation score of 9.541 ± 0.034.

VSVHAVGLSYCMICFSLQNG: the amyloid nucleation score was -0.611 ± 0.23.

The substance VSYDSNAILTFVNSYSRRRL came in with an amyloid nucleation score of 1.48 ± 0.19.

Turning to VSYDVNIFWYPKKMS, the amyloid nucleation score result was “inactive”.

Regarding VSYTHTETTPGLTSLWLVLM, the amyloid nucleation score was determined as 6.89 ± 0.077.

The substance VSYVDESHFVNTKSDMPSVS came in with an amyloid nucleation score of -0.392 ± 0.63.

On to VTCNPHGLSHD, for which the amyloid nucleation score result is “inactive”.

VTDCMSVRITLLMCSHGFKH registered an amyloid nucleation score of 7.302 ± 0.063.

VTGRAFNVTHGDAVEI yielded an amyloid nucleation score of 0.299 ± 0.39.

With VTIER, the amyloid nucleation score worked out at 0.319 ± 0.33.

As to VTIGLNDFLTWDRWFYVFYG, the amyloid nucleation score was -0.873 ± 0.25.

VTIYRGVRFGTFLPCRVRYG displayed an amyloid nucleation score of 1.48 ± 0.26.

In turn, VTKHLGEARKLVLDQRLHWG came in with an amyloid nucleation score of 5.601 ± 0.047.

On to VTKSRRFSFLYYVESLHNRC, for which the amyloid nucleation score turned out to be 4.25 ± 0.048.

The substance VTLGVWRPAFFAFWTPRKQY came in with an amyloid nucleation score of -0.35 ± 1.1.

As to VTLNTVDFPTGICKSSGARW, the amyloid nucleation score was -0.236 ± 0.42.

VTLSGYRVPLTLWDFGRCLC yielded an amyloid nucleation score of -0.565 ± 0.35.

Substance VTQRWLAFERWKLPCSLPSH gave an amyloid nucleation score of 0.02 ± 0.79.

For VTRSVSPHSSPYAFYYFNIS, the amyloid nucleation score result is “inactive”.

Turning to VTVTFIAEHSIWPSVNNCFV, the amyloid nucleation score came to 1.71 ± 0.15.

As for VTVTYLWIC, the amyloid nucleation score was determined as 1.88 ± 0.28.

In turn, VVAKAGRSKFSGCSRATAGG came in with an amyloid nucleation score of 0.609 ± 0.41.

Turning to VVAMDRCLQPVFLHLLSNNF, the amyloid nucleation score result was “inactive”.

In turn, VVAPTKLLFKLPMALYVFVG showed an amyloid nucleation score of -0.299 ± 0.34.

In turn, VVKRARLSWPFIARKYTSMV yielded an amyloid nucleation score of 0.116 ± 0.4.

VVLTAVHFQCLLTLTVPIEV yielded an amyloid nucleation score of -0.158 ± 0.48.

In the case of VVQFSNGDLLILTGCPNTSK, the amyloid nucleation score is 0.449 ± 0.8.

Consider VVRKRSKMKLRRIHFSWLVW, for which the amyloid nucleation score was found to be 0.744 ± 0.26.

As for VVSSSTSFTAGTRVM, the amyloid nucleation score result was “inactive”.

For VVTLDRGLGHNRKGIQLGFR, the amyloid nucleation score was determined as 0.547 ± 0.81.

VVVNNGTGKVPFDDM gave an amyloid nucleation score of -0.952 ± 0.42.

As for VVYSSRLRSDA, the amyloid nucleation score is 1.12 ± 0.4.

Consider VVYVVHFYFEYVGNVVARAK, for which the amyloid nucleation score result is “inactive”.

Regarding VWCAYWKWLNLSRFNEITAR, the amyloid nucleation score is -0.202 ± 0.23.

VWGWD registered an amyloid nucleation score of -0.517 ± 0.78.

For VWIAKKGQRSRFQLRSGMCA, the amyloid nucleation score worked out at 0.641 ± 0.74.

Substance VWQSYRFEEYFCICFQLASA had an amyloid nucleation score of 7.923 ± 0.031.

The substance VWRPRTFLLIHYVVKDKRTP displayed an amyloid nucleation score of -0.507 ± 0.79.

In turn, VWRTGRGYGRMWFLHISSMY displayed an amyloid nucleation score of -0.207 ± 0.34.

Consider VWSPYKTV, for which the amyloid nucleation score was -0.101 ± 1.1.

With VWYFIDFGPRKISVITWRYS, the amyloid nucleation score is -0.642 ± 0.78.

Turning to VWYYGSRKCHAVYLRNRMSV, the amyloid nucleation score is -0.192 ± 0.41.

For the substance VYAVDTTW, the amyloid nucleation score worked out at 0.237 ± 0.29.

VYFDNGISK gave an amyloid nucleation score of -1.6 ± 1.1.

As for VYGYDKISHFVHSMNSNIVW, the amyloid nucleation score result was “inactive”.

Substance VYIVHVPSQFWL yielded an amyloid nucleation score of 6.37 ± 0.08.

Substance VYMCFSPVVNIMTVISFLAR returned an amyloid nucleation score of 5.23 ± 0.093.

Turning to VYMGEELVLVISVKDR, the amyloid nucleation score result is “inactive”.

Substance VYMSQWSKVFALFALNFKVN displayed an amyloid nucleation score of 1.84 ± 0.2.

Substance VYNLN displayed an amyloid nucleation score of -0.181 ± 0.41.

For the substance VYTLIIDW, the amyloid nucleation score was -1.44 ± 0.78.

The substance VYWTKWGFLLVSSVKVLSLE gave an amyloid nucleation score of -0.14 ± 1.

VYYAGSK: the amyloid nucleation score is -0.562 ± 1.1.

With WAGRDHFWNIIYLDLSFVGE, the amyloid nucleation score turned out to be 3.77 ± 0.12.

WAKSFHTALWASLMRGRKLH came in with an amyloid nucleation score of -0.44 ± 0.54.

In turn, WASFW yielded an amyloid nucleation score of -0.725 ± 0.45.

For WCCLYDYFVDTGVLFIQDGS, the amyloid nucleation score is -0.186 ± 0.2.

As to WCGYCLTFLFPAQKQEAVLR, the amyloid nucleation score is 0.218 ± 0.35.

On to WCKLDWLIWGIEQRP, for which the amyloid nucleation score worked out at 0.063 ± 1.1.

As to WCLLAIFSYCNDPLVLIARR, the amyloid nucleation score was found to be 2.26 ± 0.12.

For WCNALFDWMLVAVCGGYYVY, the amyloid nucleation score is -0.502 ± 0.37.

In the case of WCSKKPDEFLTINAFRYWED, the amyloid nucleation score was -0.736 ± 0.34.

WCSSKSLADSGRVMGANVYI had an amyloid nucleation score of -1.02 ± 0.78.

As for WDHLFASFFFLPLMLYGRYY, the amyloid nucleation score entry was “inactive”.

Substance WDLLHYFDLF registered an amyloid nucleation score of 0.232 ± 0.56.

Turning to WEIYIGTLTIKWLFTMDRLV, the amyloid nucleation score is -0.133 ± 0.23.

Turning to WERMFRPHIFVLFSSGQLSS, the amyloid nucleation score is 5.01 ± 0.052.

Regarding WFACYMRIAGTGQEVMYVTM, the amyloid nucleation score turned out to be 0.424 ± 0.24.

Consider WFCVRVA, for which the amyloid nucleation score is -0.13 ± 0.37.

For WFFKTAMWVITT, the amyloid nucleation score came to 0.081 ± 1.1.
